Read-outs that look alike come from different tables or passages of the source.
How the values were obtained:
[1] = biological target: SusF, purified recombinant (untagged) (Legionella pneumophila (Philadelphia-1 Lp01)) (UniProt Q5ZSL2); test: SPR
[2] = biological target: SusF, purified recombinant (untagged) (Legionella pneumophila (Philadelphia-1 Lp01)) (UniProt Q5ZSL2); test: SPR; remark: listed apart in the source
[3] = biological target: SusF co-expressed with SidI (Legionella pneumophila (Philadelphia-1 Lp01)); test: SEC

In the case of “His6-SidI (from UniProt Q5ZSL3 1-942) (natural protein)”, the Kd [1] is reported as 0.89 nM, the koff [1] is reported as 0.00019 s⁻¹ and the kon [1] is reported as 220000 M⁻¹ s⁻¹. For the same substance, the Kd [2] was 3.1 nM, the koff,1 (two-state model, first step) [2] was 0.00051 s⁻¹ and the koff,2 (two-state model, second step) [2] was 0.00045 s⁻¹. It also gave a kon,1 (two-state model, first step) [2] of 27000 M⁻¹ s⁻¹ and a kon,2 (two-state model, second step) [2] of 0.0023 s⁻¹.
In the case of “SidI co-expressed with SusF (natural protein)”, the stoichiometry N [3] is reported as 1.
